The record followed here is patent US5304480.

Series [1] deals with XhoI restriction endonuclease (Xanthomonas campestris pv. holcicola ATCC 13461). Briefly: cleavage_in_vitro. The conditions noted are these: 50 mM Tris HCl pH 8.1, 10 mM MgCl2, 50 mM NaCl, 37 C; no activity detected from E. coli DH10B extracts.
Series [2] deals with XhoII restriction endonuclease (Xanthomonas campestris pv. holcicola ATCC 13461). Briefly: cleavage_in_vitro. The conditions noted are these: 20 mM Tris HCl pH 7.4, 10 mM MgCl2, 37 C; no activity detected from E. coli DH10B extracts.

Regarding Adenovirus-2 DNA (XhoI sites), the activity (units per gram of cells) in series [1] is 100000.
In the case of phage lambda DNA (XhoII/BstYI sites), the activity (units per gram of cells) in series [2] is 10000.
